Laboratory results reported in US20230406885A1, “CYCLIC PEPTIDES FOR TRAPPING INTERLEUKIN-1 BETA” (MERCK SHARP & DOHME LLC, priority 2022, published 2023).
*1 amine or outer side, *2 acyl side, *3 side chain or, on linkers, in order; H or OH if unused. [ ]: non-standard residue; d: D form. TyrEtNAc = L-tyrosine O-ethyl acetamide, (S)-3-(4-(2-acetamidoethoxy)phenyl)-2-aminopropanoic acid, CC(=O)NCCOc1ccc(C[C@H](N[*:1])C(=O)[*:2])cc1; Trp(4-Cl)(βS-Me) = C[C@@H](c1c[nH]c2cccc(Cl)c12)[C@H](N)C(=O)O; Pro(trans-4-NH2) = O=C([C@@H]1C[C@@H](N[*:3])CN1[*:1])[*:2]; Bip(4'-COOH) = N[C@@H](Cc1ccc(-c2ccc(C(=O)O)cc2)cc1)C(=O)O; 1Nal(3S-Me) = C[C@@H](c1cccc2ccccc12)[C@H](N)C(=O)O; Phe(4-COOH) = N[C@@H](Cc1ccc(C(=O)O)cc1)C(=O)O; h3Pal(5-CN) = N#Cc1cncc(CC[C@H](N)C(=O)O)c1; Phe(4-NH2) = Nc1ccc(C[C@H](N)C(=O)O)cc1; 1Nal = N[C@@H](Cc1cccc2ccccc12)C(=O)O; hTyr = N[C@@H](CCc1ccc(O)cc1)C(=O)O; 4Pal = N[C@@H](Cc1ccncc1)C(=O)O; dDab = NCC[C@@H](N)C(=O)O; Orn = NCCC[C@H](N)C(=O)O; dNMeA = CN[C@H](C)C(=O)O; Dab = NCC[C@H](N)C(=O)O; Dap = NC[C@H](N)C(=O)O; Aib = CC(C)(N)C(=O)O

Target: Recombinant human IL-1β (BioLegend 579404) (human, UniProt P01584 117-269)
Assay: cell-based or functional assay

| Binder | MRC5 IC50 [nM] |
| --- | --- |
| cyclo([TyrEtNAc]W[Phe(4-COOH)]G[Pro(trans-4-NH2)][1Nal(3S-Me)]D[dNMeA]G[Bip(4'-COOH)]WG[dDab][h3Pal(5-CN)]) (SMILES CC(=O)NCCOc1ccc(C[C@@H]2NC(=O)[C@H](CCc3cncc(C#N)c3)NC(=O)[C@@H](CCN)NC(=O)CNC(=O)[C@H](Cc3c[nH]c4ccccc34)NC(=O)[C@H](Cc3ccc(-c4ccc(C(=O)O)cc4)cc3)NC(=O)CNC(=O)[C@@H](C)N(C)C(=O)[C@H](CC(=O)O)NC(=O)[C@H]([C@@H](C)c3cccc4ccccc34)NC(=O)[C@@H]3C[C@@H](N)CN3C(=O)CNC(=O)[C@H](Cc3ccc(C(=O)O)cc3)NC(=O)[C@H](Cc3c[nH]c4ccccc34)NC2=O)cc1) [SEQ ID NO: 122 (Example No. 122)] | 0.0248 |
| cyclo([TyrEtNAc]W[Phe(4-COOH)]G[Pro(trans-4-NH2)][1Nal(3S-Me)]D[dNMeA]G[Bip(4'-COOH)]WG[dDab][hTyr]) (SMILES CC(=O)NCCOc1ccc(C[C@@H]2NC(=O)[C@H](CCc3ccc(O)cc3)NC(=O)[C@@H](CCN)NC(=O)CNC(=O)[C@H](Cc3c[nH]c4ccccc34)NC(=O)[C@H](Cc3ccc(-c4ccc(C(=O)O)cc4)cc3)NC(=O)CNC(=O)[C@@H](C)N(C)C(=O)[C@H](CC(=O)O)NC(=O)[C@H]([C@@H](C)c3cccc4ccccc34)NC(=O)[C@@H]3C[C@@H](N)CN3C(=O)CNC(=O)[C@H](Cc3ccc(C(=O)O)cc3)NC(=O)[C@H](Cc3c[nH]c4ccccc34)NC2=O)cc1) [SEQ ID NO: 123 (Example No. 123)] | 0.0457 |
| cyclo([TyrEtNAc]W[Phe(4-COOH)]G[Pro(trans-4-NH2)][1Nal(3S-Me)]D[dNMeA]G[Bip(4'-COOH)]WL[dA]A) (SMILES CC(=O)NCCOc1ccc(C[C@@H]2NC(=O)[C@H](C)NC(=O)[C@@H](C)NC(=O)[C@H](CC(C)C)NC(=O)[C@H](Cc3c[nH]c4ccccc34)NC(=O)[C@H](Cc3ccc(-c4ccc(C(=O)O)cc4)cc3)NC(=O)CNC(=O)[C@@H](C)N(C)C(=O)[C@H](CC(=O)O)NC(=O)[C@H]([C@@H](C)c3cccc4ccccc34)NC(=O)[C@@H]3C[C@@H](N)CN3C(=O)CNC(=O)[C@H](Cc3ccc(C(=O)O)cc3)NC(=O)[C@H](Cc3c[nH]c4ccccc34)NC2=O)cc1) [SEQ ID NO: 124 (Example No. 124)] | 0.636 |
| cyclo([TyrEtNAc]W[Phe(4-COOH)]G[Pro(trans-4-NH2)][1Nal(3S-Me)]D[dNMeA]G[Bip(4'-COOH)]WL[dA][hTyr]) (SMILES CC(=O)NCCOc1ccc(C[C@@H]2NC(=O)[C@H](CCc3ccc(O)cc3)NC(=O)[C@@H](C)NC(=O)[C@H](CC(C)C)NC(=O)[C@H](Cc3c[nH]c4ccccc34)NC(=O)[C@H](Cc3ccc(-c4ccc(C(=O)O)cc4)cc3)NC(=O)CNC(=O)[C@@H](C)N(C)C(=O)[C@H](CC(=O)O)NC(=O)[C@H]([C@@H](C)c3cccc4ccccc34)NC(=O)[C@@H]3C[C@@H](N)CN3C(=O)CNC(=O)[C@H](Cc3ccc(C(=O)O)cc3)NC(=O)[C@H](Cc3c[nH]c4ccccc34)NC2=O)cc1) [SEQ ID NO: 125 (Example No. 125)] | 0.064 |
| cyclo([TyrEtNAc]W[Phe(4-COOH)]G[Pro(trans-4-NH2)][1Nal(3S-Me)]D[dNMeA]G[Bip(4'-COOH)]WL[dDab][hTyr]) (SMILES CC(=O)NCCOc1ccc(C[C@@H]2NC(=O)[C@H](CCc3ccc(O)cc3)NC(=O)[C@@H](CCN)NC(=O)[C@H](CC(C)C)NC(=O)[C@H](Cc3c[nH]c4ccccc34)NC(=O)[C@H](Cc3ccc(-c4ccc(C(=O)O)cc4)cc3)NC(=O)CNC(=O)[C@@H](C)N(C)C(=O)[C@H](CC(=O)O)NC(=O)[C@H]([C@@H](C)c3cccc4ccccc34)NC(=O)[C@@H]3C[C@@H](N)CN3C(=O)CNC(=O)[C@H](Cc3ccc(C(=O)O)cc3)NC(=O)[C@H](Cc3c[nH]c4ccccc34)NC2=O)cc1) [SEQ ID NO: 126 (Example No. 126)] | 0.37 |
| cyclo([TyrEtNAc]W[Phe(4-COOH)]G[Pro(trans-4-NH2)][1Nal(3S-Me)]D[dNMeA]G[Bip(4'-COOH)]W[Orn][Aib][hTyr]) (SMILES CC(=O)NCCOc1ccc(C[C@@H]2NC(=O)[C@H](CCc3ccc(O)cc3)NC(=O)C(C)(C)NC(=O)[C@H](CCCN)NC(=O)[C@H](Cc3c[nH]c4ccccc34)NC(=O)[C@H](Cc3ccc(-c4ccc(C(=O)O)cc4)cc3)NC(=O)CNC(=O)[C@@H](C)N(C)C(=O)[C@H](CC(=O)O)NC(=O)[C@H]([C@@H](C)c3cccc4ccccc34)NC(=O)[C@@H]3C[C@@H](N)CN3C(=O)CNC(=O)[C@H](Cc3ccc(C(=O)O)cc3)NC(=O)[C@H](Cc3c[nH]c4ccccc34)NC2=O)cc1) [SEQ ID NO: 127 (Example No. 127)] | 0.432 |
| cyclo([TyrEtNAc]W[Phe(4-COOH)]G[Pro(trans-4-NH2)][1Nal(3S-Me)]D[dNMeA]G[Bip(4'-COOH)]WS[dA][hTyr]) (SMILES CC(=O)NCCOc1ccc(C[C@@H]2NC(=O)[C@H](CCc3ccc(O)cc3)NC(=O)[C@@H](C)NC(=O)[C@H](CO)NC(=O)[C@H](Cc3c[nH]c4ccccc34)NC(=O)[C@H](Cc3ccc(-c4ccc(C(=O)O)cc4)cc3)NC(=O)CNC(=O)[C@@H](C)N(C)C(=O)[C@H](CC(=O)O)NC(=O)[C@H]([C@@H](C)c3cccc4ccccc34)NC(=O)[C@@H]3C[C@@H](N)CN3C(=O)CNC(=O)[C@H](Cc3ccc(C(=O)O)cc3)NC(=O)[C@H](Cc3c[nH]c4ccccc34)NC2=O)cc1) [SEQ ID NO: 128 (Example No. 128)] | 0.09 |
| cyclo([TyrEtNAc]W[Phe(4-COOH)]G[Pro(trans-4-NH2)][1Nal(3S-Me)]N[dNMeA]G[Bip(4'-COOH)]W[Dap][dA][hTyr]) (SMILES CC(=O)NCCOc1ccc(C[C@@H]2NC(=O)[C@H](CCc3ccc(O)cc3)NC(=O)[C@@H](C)NC(=O)[C@H](CN)NC(=O)[C@H](Cc3c[nH]c4ccccc34)NC(=O)[C@H](Cc3ccc(-c4ccc(C(=O)O)cc4)cc3)NC(=O)CNC(=O)[C@@H](C)N(C)C(=O)[C@H](CC(N)=O)NC(=O)[C@H]([C@@H](C)c3cccc4ccccc34)NC(=O)[C@@H]3C[C@@H](N)CN3C(=O)CNC(=O)[C@H](Cc3ccc(C(=O)O)cc3)NC(=O)[C@H](Cc3c[nH]c4ccccc34)NC2=O)cc1) [SEQ ID NO: 129 (Example No. 129)] | 0.0828 |
| cyclo([TyrEtNAc]W[Phe(4-COOH)]G[Pro(trans-4-NH2)][Trp(4-Cl)(βS-Me)]D[dNMeA]G[Bip(4'-COOH)][1Nal][Dap][Aib][h3Pal(5-CN)]) (SMILES CC(=O)NCCOc1ccc(C[C@@H]2NC(=O)[C@H](CCc3cncc(C#N)c3)NC(=O)C(C)(C)NC(=O)[C@H](CN)NC(=O)[C@H](Cc3cccc4ccccc34)NC(=O)[C@H](Cc3ccc(-c4ccc(C(=O)O)cc4)cc3)NC(=O)CNC(=O)[C@@H](C)N(C)C(=O)[C@H](CC(=O)O)NC(=O)[C@H]([C@@H](C)c3c[nH]c4cccc(Cl)c34)NC(=O)[C@@H]3C[C@@H](N)CN3C(=O)CNC(=O)[C@H](Cc3ccc(C(=O)O)cc3)NC(=O)[C@H](Cc3c[nH]c4ccccc34)NC2=O)cc1) [SEQ ID NO: 130 (Example No. 130)] | 0.114 |
| cyclo([TyrEtNAc]W[Phe(4-COOH)]G[Pro(trans-4-NH2)][Trp(4-Cl)(βS-Me)]D[dNMeA]G[Bip(4'-COOH)][1Nal]L[dA][hTyr]) (SMILES CC(=O)NCCOc1ccc(C[C@@H]2NC(=O)[C@H](CCc3ccc(O)cc3)NC(=O)[C@@H](C)NC(=O)[C@H](CC(C)C)NC(=O)[C@H](Cc3cccc4ccccc34)NC(=O)[C@H](Cc3ccc(-c4ccc(C(=O)O)cc4)cc3)NC(=O)CNC(=O)[C@@H](C)N(C)C(=O)[C@H](CC(=O)O)NC(=O)[C@H]([C@@H](C)c3c[nH]c4cccc(Cl)c34)NC(=O)[C@@H]3C[C@@H](N)CN3C(=O)CNC(=O)[C@H](Cc3ccc(C(=O)O)cc3)NC(=O)[C@H](Cc3c[nH]c4ccccc34)NC2=O)cc1) [SEQ ID NO: 131 (Example No. 131)] | 0.0498 |
| cyclo([TyrEtNAc]W[Phe(4-COOH)]G[Pro(trans-4-NH2)][Trp(4-Cl)(βS-Me)]D[dNMeA]G[Bip(4'-COOH)][1Nal][Orn][Aib]G) (SMILES CC(=O)NCCOc1ccc(C[C@@H]2NC(=O)CNC(=O)C(C)(C)NC(=O)[C@H](CCCN)NC(=O)[C@H](Cc3cccc4ccccc34)NC(=O)[C@H](Cc3ccc(-c4ccc(C(=O)O)cc4)cc3)NC(=O)CNC(=O)[C@@H](C)N(C)C(=O)[C@H](CC(=O)O)NC(=O)[C@H]([C@@H](C)c3c[nH]c4cccc(Cl)c34)NC(=O)[C@@H]3C[C@@H](N)CN3C(=O)CNC(=O)[C@H](Cc3ccc(C(=O)O)cc3)NC(=O)[C@H](Cc3c[nH]c4ccccc34)NC2=O)cc1) [SEQ ID NO: 132 (Example No. 132)] | 0.37 |
| cyclo([TyrEtNAc]W[Phe(4-COOH)]G[Pro(trans-4-NH2)][Trp(4-Cl)(βS-Me)]D[dNMeA]G[Bip(4'-COOH)][1Nal]S[dA][Phe(4-NH2)]) (SMILES CC(=O)NCCOc1ccc(C[C@@H]2NC(=O)[C@H](Cc3ccc(N)cc3)NC(=O)[C@@H](C)NC(=O)[C@H](CO)NC(=O)[C@H](Cc3cccc4ccccc34)NC(=O)[C@H](Cc3ccc(-c4ccc(C(=O)O)cc4)cc3)NC(=O)CNC(=O)[C@@H](C)N(C)C(=O)[C@H](CC(=O)O)NC(=O)[C@H]([C@@H](C)c3c[nH]c4cccc(Cl)c34)NC(=O)[C@@H]3C[C@@H](N)CN3C(=O)CNC(=O)[C@H](Cc3ccc(C(=O)O)cc3)NC(=O)[C@H](Cc3c[nH]c4ccccc34)NC2=O)cc1) [SEQ ID NO: 133 (Example No. 133)] | 0.766 |
| cyclo([TyrEtNAc]W[Phe(4-COOH)]G[Pro(trans-4-NH2)][Trp(4-Cl)(βS-Me)]D[dNMeA]G[Bip(4'-COOH)][4Pal][Dab][dA][hTyr]) (SMILES CC(=O)NCCOc1ccc(C[C@@H]2NC(=O)[C@H](CCc3ccc(O)cc3)NC(=O)[C@@H](C)NC(=O)[C@H](CCN)NC(=O)[C@H](Cc3ccncc3)NC(=O)[C@H](Cc3ccc(-c4ccc(C(=O)O)cc4)cc3)NC(=O)CNC(=O)[C@@H](C)N(C)C(=O)[C@H](CC(=O)O)NC(=O)[C@H]([C@@H](C)c3c[nH]c4cccc(Cl)c34)NC(=O)[C@@H]3C[C@@H](N)CN3C(=O)CNC(=O)[C@H](Cc3ccc(C(=O)O)cc3)NC(=O)[C@H](Cc3c[nH]c4ccccc34)NC2=O)cc1) [SEQ ID NO: 134 (Example No. 134)] | 0.379 |
